Data from PMC3840377.

Experiments:
alpha-thrombin [1] = biological target: T1, alpha-thrombin (UniProt P00734;P00734 328-363;364-622); assay: flow cytometry, thrombin capture on CEM cells, T-15-biotin/SA-488 read-out
streptavidin = streptavidin (UniProt P22629 25-183); assay: flow cytometry, SA-488 capture on CEM cells
alpha-thrombin [2] = biological target: T1, alpha-thrombin; assay: flow cytometry, sandwich on T27-AR-captured thrombin

streptavidin, sequence (P22629 25-183): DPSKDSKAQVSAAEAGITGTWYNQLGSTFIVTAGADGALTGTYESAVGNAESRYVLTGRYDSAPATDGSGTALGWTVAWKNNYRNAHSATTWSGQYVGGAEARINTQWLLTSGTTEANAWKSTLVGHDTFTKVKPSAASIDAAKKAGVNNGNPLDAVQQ

TTTTTTTGTCCGTGGTAGGGCAGGTTGGGGTGAC (ssDNA, 5' diacyllipid) [T27-AR]: binds (alpha-thrombin [1]).

TTTTTTTATTGACCGCTGTGTGACGCAACACTCAAT (ssDNA, 5' diacyllipid) [SA-AR]: binds (streptavidin).

GGTTGGTGTGGTTGG (ssDNA) [T-15]: binds (alpha-thrombin [2]).
